Experimental data published in patent US20260008852A1 (CRYSTAL BIOSCIENCE, published 2026).
Changes are numbered by the printed parent chain.

T1: B7-H3 on CHO-K1 cells stably transfected with B7-H3 (GenScript #M00536) (UniProt Q5ZPR3 29-534, limits assumed)
T1 sequence (looked up): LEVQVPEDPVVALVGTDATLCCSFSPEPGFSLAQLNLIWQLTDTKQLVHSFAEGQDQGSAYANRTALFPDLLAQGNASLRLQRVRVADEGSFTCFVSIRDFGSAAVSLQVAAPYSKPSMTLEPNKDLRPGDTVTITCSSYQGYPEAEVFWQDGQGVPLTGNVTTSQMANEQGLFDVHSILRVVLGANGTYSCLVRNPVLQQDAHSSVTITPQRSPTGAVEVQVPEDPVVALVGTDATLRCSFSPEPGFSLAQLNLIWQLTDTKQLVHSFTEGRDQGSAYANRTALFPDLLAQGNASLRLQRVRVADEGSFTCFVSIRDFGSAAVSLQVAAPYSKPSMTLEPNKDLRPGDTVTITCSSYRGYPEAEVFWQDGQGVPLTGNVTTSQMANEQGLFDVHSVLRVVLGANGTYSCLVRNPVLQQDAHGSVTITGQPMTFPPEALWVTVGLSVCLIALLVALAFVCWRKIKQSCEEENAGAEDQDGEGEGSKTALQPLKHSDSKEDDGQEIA

T2: His-tagged human B7-H3 (human, UniProt Q5ZPR3-2 29-245, limits assumed)
T2 construct: Bought His-tagged protein coated on the ELISA plate; also called hu B7-H3; CD276
T2 sequence (looked up): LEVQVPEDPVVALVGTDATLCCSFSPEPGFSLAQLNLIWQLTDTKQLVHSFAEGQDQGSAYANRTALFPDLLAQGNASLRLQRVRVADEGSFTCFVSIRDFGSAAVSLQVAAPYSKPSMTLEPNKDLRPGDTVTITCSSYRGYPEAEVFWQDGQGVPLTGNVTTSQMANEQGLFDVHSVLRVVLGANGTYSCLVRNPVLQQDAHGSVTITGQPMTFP

T3: His-tagged mouse B7-H3 (mouse, UniProt Q8VE98 29-244, limits assumed)
T3 construct: Bought His-tagged protein coated on the ELISA plate; also called mu B7-H3; murine B7-H3
T3 sequence (looked up): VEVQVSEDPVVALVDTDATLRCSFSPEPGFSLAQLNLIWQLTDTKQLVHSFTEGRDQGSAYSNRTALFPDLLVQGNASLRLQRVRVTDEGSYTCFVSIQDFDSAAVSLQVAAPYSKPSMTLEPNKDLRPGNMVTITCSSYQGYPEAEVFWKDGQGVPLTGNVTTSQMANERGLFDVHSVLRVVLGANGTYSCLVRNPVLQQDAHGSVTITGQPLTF

T4: His-tagged cynomolgus monkey B7-H3 (cynomolgus monkey)
T4 chain: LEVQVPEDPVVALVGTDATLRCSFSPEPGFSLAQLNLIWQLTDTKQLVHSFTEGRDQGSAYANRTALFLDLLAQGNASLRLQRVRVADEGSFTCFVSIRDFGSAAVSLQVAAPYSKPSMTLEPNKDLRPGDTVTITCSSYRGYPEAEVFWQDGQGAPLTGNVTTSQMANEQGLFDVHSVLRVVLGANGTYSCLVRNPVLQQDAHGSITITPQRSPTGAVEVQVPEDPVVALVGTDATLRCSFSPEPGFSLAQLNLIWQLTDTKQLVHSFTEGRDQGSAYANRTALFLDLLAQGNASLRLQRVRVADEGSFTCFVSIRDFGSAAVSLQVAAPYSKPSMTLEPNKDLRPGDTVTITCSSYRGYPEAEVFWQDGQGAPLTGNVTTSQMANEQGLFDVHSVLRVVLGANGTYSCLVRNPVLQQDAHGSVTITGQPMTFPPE

T5: B7-H3 on B7-H3-expressing CHO cells (Genescript) (UniProt Q5ZPR3 29-534, limits assumed)
T5 construct: whole, on cells; also called CHO-K1/B7-H3; MFI B7-H3
T5 sequence (looked up): T1 sequence (looked up)

B1: 40633p1.1.G5 IgG (antibody, V domains shown)
VH: EVQLLESGGGLVQPGGSLRLSCAASGFIVNYYGMSWVRQPPGKGLEWVSAIKQDGSEKYYADSVKGRFTISRDNSKTTLYLQMNSLRAEDTAVYYCARHWNDYSNGMNVWGQGTTVTVSS
VL: QSVLTQPPSASGTPGQRVTISCSGSWSNIGSYNSHWYQKLPGTAPKLLIYTTDRRPSGVPDRFSGSKSGTSASLAISGLQSEDEADYYCGTWDDSLNVWVFGGGTKLTVL
B2: 40633p1.2.A10 IgG (antibody, V domains shown)
VH: B1 VH with I28T, N30S, P40A, A50V, K58E, T77N
VL: QSVLTQPPSASGTPGQRVTISCSGSTSNVGDRYVYWYQQLPGTAPKLLIYLDDQRPSGVPDRFSGSKSGTSASLAISGLQSEDEADYYCASWDASLNGWVFGGGTKLTVL
B3: 40633p1.2.C3 IgG (antibody, V domains shown)
VH: B1 VH with I28T, N30S, P40A, T77N, G106A, G111E
VL: B2 VL with T26N, D31G, R32N, Y35S, L51R, D52N, D53S, D86V
B4: 40633p1.1.G7 IgG (antibody, V domains shown)
VH: EVQLLESGGGLVQPGGSLRLSCAASGFTFSGSAMNWVRQAPGKGLEWVSAINSGGTTIYYADSVKGRFTVSRDNSKNTLYLQMNSLRAEDTAVYYCVKLDFYYGMDVWGEGTTVTVSS
VL: QSVVTQPPSASGTPGQRVTVSCSGSSSNVGSKYVQWYQQLPGTAPKLLIYATDRRPSGVPDRFSGSKSGTSASLAISGLQSEDEADYYCASWDDSLNAWVFGGGTKLTVL
B5: 40633p1.2.D1 IgG (antibody, V domains shown)
VH: EVQLLESGGGLVQPGGSLRLSCAASGFTFDVYGMSWVRQAPGKGLEWVSAINWNGGSTYYADSVKGRFTISRDNSENTLYLQMNSLRAEDTAVYYCAKEKWKHFIYYGMDVWGQGTTVTVSS
VL: QSVLTQPASASGTPGQTVSISCSGSSSNIDSNTANWYQQLPGTAPKLLIYSNNQRPSGVPDRFSGSKSDTSASLAISGLQSEDEGDYYCSAWDDNLNGWLFGGGTKLTVL
B6: 40633p1.2.D11 IgG (antibody, V domains shown)
VH: EVQLESGGGLVQPGGSLRLSCAASGFTVSYYGMSWVRQAPGKGLEWVSAIKQDGSEKYYADSVKGRFTISRDNSKNTLYLQMNSLRAEDTAVYYCARHWNDYSNAMNVWGQGTTVTVSS
VL: B2 VL with V29I, G30A, D31I, R32D, Y33F, Y35N, L51T, D52I, D86V, G103R
B7: 40633p1.1.H11 IgG (antibody, V domains shown)
VH: EVQLLESGGGLVQPGGSLRLSCAASGFTFSSYPMTWVRQAPGKGLEWVADINSGGGTTLYADAVKGRFTISRDNSKNIVYLQMNSLRGEDTAVYYCAKHLDYYSYGMDVWGQGTTVTVSS
VL: QSVLTQPPSASGTPGQRVTISCSGVTSKIGSKYVHWYQQLPGTAPKLLIYRNFERPSGVPDRFSGSTSGTSASLAISGLQSEDEADYYCATWEGALNGWVFGGGTKLTVL
B8: 40633p1.2.C11 IgG (antibody, V domains shown)
VH: EVQLLESGGGLVQPGGSLRLSCAASGFTFSSYWMSWVRQAPGKGLEWVAGINRNGGSTYYADSVKGRFTISRDNSENTLYLQVNSLRAEDTAVYYCARWNDYDIMDVWGQGTTVTVSS
VL: QSVLTQPSSASGTPGQRVTISCSGSSSNVGRRAVNWYQQLPGTAPKLLISNSQRPSGVPDRFSGSKSGTSASLAISGLQSEDEADYYCATWDASLNSWVFGGGTKLTVL
B9: 40633p1.2.D7 IgG (antibody, V domains shown)
VH: B8 VH with G10S, A49S, N52S, R53S, N54S, G56S, S57A, E76K, V83M
VL: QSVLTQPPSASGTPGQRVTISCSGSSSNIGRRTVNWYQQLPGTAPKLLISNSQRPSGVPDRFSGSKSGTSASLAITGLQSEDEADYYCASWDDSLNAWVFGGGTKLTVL
B10: 40511p1.1.A1 (scFv, V domains shown)
VH: DVQLVESGGGVVRPGESLRLSCAASGFTFSNYAMNWVRQAPGEGLEWVSRINYKGYNITYYADSVKGRFTISRDNSKNTLYLQMNSLRAEDTAVYYCAKSGSNSNNFFDYWGLGTLVTVSS
VL: EIVLTQSPGTLSVSPGERATLSCRASQSVNSKLAWYQQRPGQAPRLLIYDASSRATGIPDRFSGSGSGTDFTLTISRLEPEDFAVYYCQQYKNWPPLTFGGGTKVEIK
notes: Tested as scFv-Fc (Expi293 supernatant)
B11: 40579p1.E5 (scFv, V domains shown)
VH: EVQLLESGGGLVQPGGSLRLSCAASGFTFSDDWMTWVRQAPGKGLEWVSAINWNGNSTHYADSVKGRFTVSRDNSKNTLYLQMNSLRAEDTAVYYCAKSRTTYYSSMDVWGQGTTVTVSS
VL: EIVLTQSPGTLSLSPGERATLSCRASQTVGSYLAWYQQKPGQAPRLLIYGASSRATGIPARFSGSGSGTDFTLTISSLQSEDFAVYYCQHYYDWPPYSFGGGTKVEIK
notes: as for B10
B12: 40633p1.2.C11 (scFv, V domains shown)
VH: B8 VH
VL: B8 VL
notes: as for B10

What follows are binders tested against T1, B7-H3 on CHO-K1 cells stably … (assay: cell-based or functional assay).

ADCC reporter assay, EC50 Value, CHOK1/B7-H3 cells | ADCC reporter assay, Max RLU, CHOK1/B7-H3 cells | Binder
0.18 mg/L | 452000 RLU | B1
0.0471 mg/L | 762000 RLU | B2
0.402 mg/L | 490000 RLU | B3
0.0419 mg/L | 656000 RLU | B4
0.0216 mg/L | 676000 RLU | B5
0.107 mg/L | 510000 RLU | B6
0.0412 mg/L | 798000 RLU | B7
~1.56 mg/L | 94400 RLU | B8
0.0213 mg/L | 820000 RLU | B9

Each binder was assayed against T2, His-tagged human B7-H3 (assay: ELISA OD450 on hu B7-H3 over OD450 on mu B7-H3).
Protocol: (§1) The variable regions of heavy and light chains were cloned and assembled into a single chain Fv-Fc (ScFv-Fc) mammalian expression vector. Sanger sequencing was performed by GeneWiz and sequences were evaluated using DNASTAR Lasergene 15. Unique scFv-Fes were transiently expressed in Expi293 cells (Life Technologies, #A14527) grown in Expi293 Expression Medium (Life Technologies, #A1435101) after transfection using the ExpiFectamine transfection reagent and supplements (Life Technologies, #A14524). Cells were incubated for 3-5 days with shaking at 37° C. in a 5% CO2 humidified incubator.

hu:mu ratio | Binder
1.87 | B10
1.36 | B11

These binders were tested against T2, His-tagged human B7-H3 (assay: ELISA, coated His-tagged antigen, scFv-Fc 1 ug/ml).
Protocol: as §1

ELISA OD450 @ 1 ug/ml | Binder
1.9 OD450 | B10
1.95 OD450 | B11

Each binder was assayed against T3, His-tagged mouse B7-H3 (assay: ELISA, coated His-tagged antigen, scFv-Fc 1 ug/ml).
Protocol: as §1

ELISA OD450 @ 1 ug/ml | Binder
1.02 OD450 | B10
1.44 OD450 | B11

Target: T4, His-tagged cynomolgus monkey B7-H3
Test: ELISA, coated His-tagged antigen, scFv-Fc 1 ug/ml
Protocol: as §1

ELISA OD450 @ 1 ug/ml | Binder
2.27 OD450 | B10
2.17 OD450 | B11
0.045 OD450 | B12

What follows are binders tested against T5, B7-H3 on B7-H3-expressing CHO cells … (assay: flow cytometry, B7-H3-expressing CHO cells, 10 ug/ml).
Protocol: Binding of anti-B7-H3 antibodies to cell lines was assessed by flow cytometry. Briefly, approximately 1.5 e5 B7-H3-expressing CHO cells (Genescript) or parent CHO cells (ATCC) were resuspended in FACS buffer (PBS/1% BSA/0.01% NaN3) containing 10 μg/ml of anti-B7-H3 antibodies and incubated for 60 min on ice. […] Cells were then washed twice, resuspended in FACS buffer, and read on an Attune Flow Cytometer (Life Technologies). Data are expressed as Mean Fluorescent Intensities (MFI).

MFI @ 10 ug/ml | Binder
34100 MFI | B10
89200 MFI | B11
18300 MFI | B12
